Reference: US20110035817A1 (YEDA RESEARCH AND DEVELOPMENT, published 2011)

Molecular target: T1, myc-NIK (wild-type NIK fused N-terminally to a six myc tag) (UniProt Q99558 1-947)
T1 construct: pCS3MTNIK expression vector, co-transfected into HEK-293T cells; also called NF-κB-inducing kinase; MAP3K14; not shown: six myc tag at the N-terminus
Test: co-immunoprecipitation from HEK-293T lysate: NIK immunoprecipitated with anti-NIK antibody, co-precipitated SIVA detected by Western blot
Protocol: FLAG-SIVA2 or FLAG-SIVA3 expression vectors were co-transfected with NIK expression vector into HEK-293T cells. 24 h later, cells were lysed, NIK was immunoprecipitated with anti-NIK antibody and co-precipitated SIVA was monitored by western Blotting. WB=Western Blot, TLC=Total cell lysate, IP=immunoprecipitation.
Next, it was explored whether SIVA3 binds NIK. FLAG-SIVA2 (8 μg) or FLAG-SIVA3 (8 μg) were co-transfected with myc-NIK (7 μg) into HEK-293T cells (1.5×10⁶ seeded in 90 mm plate, transfected using calcium phosphate method). 24 h later, cells were lysed, NIK was immunoprecipitated with anti-NIK antibody and co-precipitated SIVA was detected by western Blotting.

T1 sequence (Q99558 whole entry, the tested form may be a part): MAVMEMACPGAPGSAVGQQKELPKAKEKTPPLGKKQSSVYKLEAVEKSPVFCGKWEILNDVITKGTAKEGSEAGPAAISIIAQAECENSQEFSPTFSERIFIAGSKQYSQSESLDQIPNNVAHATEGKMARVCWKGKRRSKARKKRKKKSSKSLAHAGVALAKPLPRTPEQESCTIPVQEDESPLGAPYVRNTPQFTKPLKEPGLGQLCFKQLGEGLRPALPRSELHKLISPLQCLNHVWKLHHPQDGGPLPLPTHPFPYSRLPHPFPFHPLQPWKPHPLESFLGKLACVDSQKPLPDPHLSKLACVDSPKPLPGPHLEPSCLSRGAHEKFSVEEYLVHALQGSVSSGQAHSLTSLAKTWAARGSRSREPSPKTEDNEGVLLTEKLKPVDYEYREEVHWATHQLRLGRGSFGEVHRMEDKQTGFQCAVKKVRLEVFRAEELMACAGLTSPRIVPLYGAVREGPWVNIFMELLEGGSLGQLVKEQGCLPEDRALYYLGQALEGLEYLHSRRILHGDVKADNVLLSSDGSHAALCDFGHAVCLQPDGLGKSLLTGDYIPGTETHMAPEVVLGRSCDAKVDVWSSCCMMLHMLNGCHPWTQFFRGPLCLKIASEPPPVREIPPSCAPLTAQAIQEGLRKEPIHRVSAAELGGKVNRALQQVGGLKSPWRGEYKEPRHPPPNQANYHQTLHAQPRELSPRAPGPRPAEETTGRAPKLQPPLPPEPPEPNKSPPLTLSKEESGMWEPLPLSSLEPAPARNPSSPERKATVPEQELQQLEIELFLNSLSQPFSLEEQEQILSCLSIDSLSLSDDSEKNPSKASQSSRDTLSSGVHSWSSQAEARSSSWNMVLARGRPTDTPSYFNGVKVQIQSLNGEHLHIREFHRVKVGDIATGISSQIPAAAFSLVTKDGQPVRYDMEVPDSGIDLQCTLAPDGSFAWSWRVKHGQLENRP

binding result: no binding
B1: FLAG-SIVA3 (other)
chain: MPKRSCPFADVAPLQLKVRVSQRELSRGVCAERYSQEVFAAVTCTRKCCAPAVPCSRPEAGSSRLPSPGATPCMAAFPGRALGVHTELWGRREGCLLHVLFCILMTE
notes: Expressed from pcDNA3 in HEK-293T cells and tested in lysate by co-immunoprecipitation; not shown: FLAG tag
